Laboratory results: patent US9676849B2, “Enhancement of transport of therapeutic molecules across the blood brain barrier” (Biogen Idec MA Inc., priority 2012, dated 2017)

Tests used:
mu pain receptors = molecular target: T1, mu pain receptors (Rattus norvegicus, UniProt P33535); assay: Hargreaves model of thermal pain, Dalargin alone or linked; assay type: in vivo; details: for Fold potency compared to FC5-Dal in Hargreaves model: IV, based on molar ratio of Dalargin injected
T1 construct: from tissue; host or cells: rat brain (periaqueductal region), in vivo
T1 sequence (P33535 whole entry): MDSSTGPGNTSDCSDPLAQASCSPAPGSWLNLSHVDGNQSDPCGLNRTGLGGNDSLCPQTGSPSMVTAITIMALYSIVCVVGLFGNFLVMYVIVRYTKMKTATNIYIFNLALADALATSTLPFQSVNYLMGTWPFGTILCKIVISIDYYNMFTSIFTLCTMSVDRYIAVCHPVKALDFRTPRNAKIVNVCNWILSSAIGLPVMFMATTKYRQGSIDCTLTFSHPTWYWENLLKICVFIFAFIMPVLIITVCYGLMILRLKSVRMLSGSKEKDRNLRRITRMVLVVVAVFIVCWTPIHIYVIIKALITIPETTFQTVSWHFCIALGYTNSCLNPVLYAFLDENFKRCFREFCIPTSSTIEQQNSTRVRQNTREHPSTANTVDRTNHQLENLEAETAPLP
From the text: The Hargreaves model measures increased sensitivity to thermal pain induced by injection of Freud's adjuvant in a paw. The thermal pain can be suppressed upon binding of a six amino acid peptide Dalargin to the mu pain receptors expressed in the peri-aquaductal portion of the brain. […] Thus intravenously injected Dalargin must be linked to a receptor mediated transporter to allow cross BBB transport and suppression of pain. To evaluate the transport of Dalargin mediated by FC5 containing molecules across the BBB the Hargreaves animal model was used to compare the potency of various molecular forms of FC5 Vhh linked to Dalargin. The negative control molecule for FC5-Dalargin was EG2-Dalargin and for FC5-Fc-Dalargin was Fc-FC5-Dalargin.
Prior to intravenous (IV) injection each molecule was initially tested by intracerebroventricular (ICV) injection as a positive control to insure all linked molecules are functionally active and able to induce pain suppression. Both negative control and positive test molecules would be expected to suppress pain upon ICV injection as the molecules are injected directly into the cerebral spinal fluid and are able to diffuse to and block the periacquiductal mu pain receptors. […] Next each Dalargin labeled molecule and corresponding Dalargin labeled control protein were evaluated for efficacy upon IV administration. Initially, the efficacy of FC5-Dal versus the control (EG2-Dal) was compared. […] It is interesting to note that three doses of FC5-Dal at 7.5 mg per kg (mpk) per dose as needed prior to observing the initial pain suppression.
Chronic pain suppression is expressed as the percentage of maximum possible effect (% MPE). The value is based on the area under the curve for pain suppressed animal relative to the contralateral control paw over the time frame of measurement. The efficacy of molecules injected either ICV or IV is shown as a percent of maximum possible effect (% MPE) in the Hargreaves model. […] Dose in mpk for intravenous (IV) dosing values are indicated as per injection followed by the number of injections.

[1] = Circulating pharmacokinetics of FC5 containing molecules in rats; assay type: in vivo; details: rat, intraperitoneal 3 mpk; for Beta-phase half life (h), assay format Fluorescence: AL680 labeled molecules, fluorescence from sera
Experimental: To understand the exposure of the BBB endothelium to each of the FC5 containing antibodies the pharmacokinetics the molecules were determined in rats. Animals were dosed intraperitoneally at 3 mpk with either the FC5 Vhh N-terminally (FC5-Fc) or C-terminally (Fc-FC5) fused to a human Fc domain. Concentrations of FC5-Fc or Fc-FC5 in the plasma were determined at various time points by ELISA. The results were analyzed to determine the beta-phase half-lives of each construct (Table II).
Half-life was determined by ELISA detection of the human Fc from rat serum or with AL680 labeled molecules and the fluorescence determined from the sera. No difference was observed between molecules in which the half-life was determined by fluorescence versus ELISA. Molecules were injected intraperitoneal at 3 mpk.

[2] = test system: immortalized adult rat brain endothelial cells (SV-ARBEC); assay: In vitro transport rate across BBB endothelial cell monolayer; assay type: in vitro ADME; details: compared with control antibodies 12F6A, CRL2434 and C37H; FIG. 3
From the text: We used an in vitro BBB endothelial cell layer to model in vivo cross BBB flux rates for each FC5 containing protein. The in vitro model uses a monolayer of immortalized adult rat brain endothelial cells (SV-ARBEC) in a monolayer assay system validated for tightness with small molecules (Garberg, P., Ball, M., Borg, N., Cecchelli, R., Fenart, L., Hurst, R. D., Lindmark, T., Mabondzo, A., Nilsson, J. E., Raub, T. J., Stanimirovic, D., Terasaki, T., Oberg, J. O., and Osterberg, T. (2005) Toxicol In Vitro 19(3), 299-334). The methods for the in vitro flux rate determinations are nearly identical to those described in (Caram-Salas, N., Boileau, E., Farrington, G. K., Garber, E., Brunette, E., Abulrob, A., and Stanimirovic, D. Methods in molecular biology 763, ed. 2010, 383-401).

SV-ARBEC = assay: Fluorescent flow cytometry binding to SV40 transformed rat BBB endothelial cells; details: SV40 transformed cell line vs primary cells
Experimental: (§1) The binding affinity of each molecule was evaluated in separate Fluorescent Flow Cytometry assay using freshly isolated rat BBB endothelial cells, SV40 transformed rat BBB endothelial cells (Caram-Salas, N., Boileau, E., Farrington, G. K., Garber, E., Brunette, E., Abulrob, A., and Stanimirovic, D. Methods in molecular biology 763, ed. 2010, 383-401) and to Hek293 cells transiently transfected with the previously identified target TMEM30A.

Primary rat BBB EC = assay: Fluorescent flow cytometry binding to primary rat BBB endothelial cells; details: read-out: Affinity (nM), Primary rat BBB EC
Experimental: as §1

Row | Molecule | Fold potency compared to FC5-Dal in Hargreaves model (mu pain receptors) | half-life when fused to a human Fc compared with FC5 Vhh alone [1] | Beta-phase half life (h), assay format Fluorescence [1] | rate of transport across in vitro SV40 rat BBB transformed endothelial cell line [2] | fold weaker binding than to primary rat BBB endothelial cells (SV-ARBEC) | average % MPE after the first 0.5 h (mu pain receptors; rat, single IV dose 0.5 mpk) | Beta-phase half life (h), assay format ELISA ([1]; ELISA detection of human Fc from rat serum) | Kd (Primary rat BBB EC)
1 | Fc-FC5 | <0.1 fold | significantly longer | 38.6 h | increased rate of transport | – | – | – | –
2 | FC5-Fc | 80 fold | significantly longer | 39.4 h | increased rate of transport | about 7 fold | 50 % MPE | 35.7 h | –
3 | FC5: llama single domain VHH antibody binding TMEM30A, SEQ ID NO: 10, with myc and His tags (protein, myc and His tags) VHH: EVQLQASGGGLVQAGGSLRLSCAASGFKITHYTMGWFRQAPGKEREFVSRITWGGDNTFYSNSVKGRFTISRDNAKNTVYLQMNSLKPEDTADYYCAAGSTSTATPLRVDYWGKGTQVTVSS | 1 fold | – | – | increased rate of transport | – | – | – | > 2000 nM
